Experimental data taken from US20150071923A1 (published 2015).
Where two headings read alike, the source gives them in different places. One block for each binder: values may come before it.

Assays:
[1] = target: T1, His-tagged soluble extracellular domain of EGFR (sEGFR-H6; Sino Biologics, Cat #10001-H08H) (human, UniProt P00533 25-645); assay: pH-sensitive ELISA on coated sEGFR-H6
T1 construct: Bought protein; also called EGFR sECD; soluble extracellular domain of EGF receptor

[2] = target: T1, His-tagged soluble extracellular domain …; assay: ELISA on coated sEGFR-H6; pH 7.4, 1 mM lactic acid, 25% human serum
[3] = target: T1, His-tagged soluble extracellular domain …; assay: ELISA on coated sEGFR-H6; pH 6.5, 16.7 mM lactic acid, 25% human serum
[4] = target: T1, His-tagged soluble extracellular domain …; assay: ELISA on coated sEGFR-H6; pH 6.0, 16.7 mM lactic acid, 25% human serum
[5] = target: human epidermal growth factor receptor (EGFR) on cells and tissues (human, UniProt P00533 25-1210); assay: cell-based or functional assay
[6] = target: T1, His-tagged soluble extracellular domain …; assay: pH-sensitive ELISA on coated sEGFR-H6; remark: listed apart in the source
[7] = target: T1, His-tagged soluble extracellular domain …; assay: pH-sensitive ELISA, transfected supernatant adjusted to 1 ng/mL
[8] = target: T1, His-tagged soluble extracellular domain …; assay: pH-sensitive ELISA, transfected supernatant adjusted to 2 ng/mL
[9] = target: T1, His-tagged soluble extracellular domain …; assay: pH-sensitive ELISA, transfected supernatant adjusted to 4 ng/mL
[10] = target: T1, His-tagged soluble extracellular domain …; assay: ELISA on coated sEGFR-H6; pH 7.4, 1 mM lactic acid, 25% human serum; remark: listed apart in the source
[11] = target: T1, His-tagged soluble extracellular domain …; assay: ELISA on coated sEGFR-H6; pH 6.5, 16.7 mM lactic acid, 25% human serum; remark: listed apart in the source
[12] = target: T1, His-tagged soluble extracellular domain …; assay: ELISA on coated sEGFR-H6; pH 6.0, 16.7 mM lactic acid, 25% human serum; remark: listed apart in the source
[13] = target: T1, His-tagged soluble extracellular domain …; assay: pH-sensitive ELISA on coated sEGFR-H6; remark: listed apart in the source
[14] = target: T1, His-tagged soluble extracellular domain …; assay: ELISA on coated sEGFR-H6; pH 7.4, 1 mM lactic acid, 25% human serum; remark: listed apart in the source
[15] = target: T1, His-tagged soluble extracellular domain …; assay: ELISA on coated sEGFR-H6; pH 6.5, 16.7 mM lactic acid, 25% human serum; remark: listed apart in the source
[16] = target: T1, His-tagged soluble extracellular domain …; assay: ELISA on coated sEGFR-H6; pH 6.0, 16.7 mM lactic acid, 25% human serum; remark: listed apart in the source

ratio of binding activity pH 6.0/7.4 (inverse EC50) [1]: 7.53
ratio of binding activity pH 6.5/7.4 (inverse EC50) [1]: 6.69
D (maximum) of 4-parameter fit [2]: 3.65 OD450
EC50 [2]: 32.6 ng/mL
D (maximum) of 4-parameter fit [3]: 3.76 OD450
EC50 [3]: 4.87 ng/mL
D (maximum) of 4-parameter fit [4]: 3.79 OD450
EC50 [4]: 4.33 ng/mL
B1: flag-tagged humanized T030F/Y104D/Q111P mutant anti-EGFR antibody (FDP-h3) (antibody, human IgG1, kappa, V domains shown)
VH: EVQLVQSGAEVKKPGATVKISCKVSGFSLFNYGVHWVRQATGQGLEWMGVIWSGGNTDYNTPFTSRFTISRDDSKNTAYLQMNSLKTEDTAVYYCARALTYYDDEFAYWGPGTLVTVSS
VL: AIQLTQSPSSLSASVGDRVTITCRASQSIGTNIHWYLQKPGQSPQLLIYYASESISGIPDRFSGSGSGTDFTLTISRLEPEDFAVYYCQQNNNWPTTFGQGTKVEIKR
notes: also called FDP-h03

IC50 for cell growth inhibition of keratinocytes at pH 7.4 [5]: ~17 nM
cell growth inhibition of HT29 cells at pH 6.8; concentration for about 50% inhibition [5]: ~22 nM
cell growth inhibition of HT29 cells at pH 6.8; maximum concentration tested [5]: ~80%
B2: huY104D-MMAE antibody-drug conjugate (antibody, human IgG1, kappa)
heavy: not shown
light: AIQLTQSPSSLSASVGDRVTITCRASQSIGTNIHWYLQKPGQSPQLLIYYASESISGIPDRFSGSGSGTDFTLTISRLEPEDFAVYYCQQNNNWPTTFGQGTKVEIKRTVAAPSVFIFPPSDEQLKSGTASVVCLLNNFYPREAKVQWKVDNALQSGNSQESVTEQDSKDSTYSLSSTLTLSKADYEKHKVYACEVTHQGLSSPVTKSFNRGEC
modifications: MMAE conjugated as described in Example 18 (maleimidocaproyl-vcPAB linker on reduced disulfide cysteines)

IC50 for cell growth inhibition of keratinocytes at pH 7.4 [5]: ~5.4 nM
cell growth inhibition of HT29 cells at pH 6.8; concentration for about 50% inhibition [5]: ~22 nM
cell growth inhibition of HT29 cells at pH 6.8; maximum concentration tested [5]: ~80%
B3: huY104E-MMAE antibody-drug conjugate (antibody, human IgG1, kappa)
heavy: not shown
light: B2 light
modifications: MMAE conjugated as described in Example 18 (maleimidocaproyl-vcPAB linker on reduced disulfide cysteines)

ratio of binding activity pH 6.0/7.4 (inverse EC50) [6]: 8.1
ratio of binding activity pH 6.5/7.4 (inverse EC50) [6]: 4.86
pH 6.0/pH 7.4 OD ratio [7]: 17.4
pH 6.0/pH 7.4 OD ratio [8]: 7.21
pH 6.0/pH 7.4 OD ratio [9]: 11.3
D (maximum) of 4-parameter fit [10]: 3.14 OD450
EC50 [10]: 33.6 ng/mL
D (maximum) of 4-parameter fit [11]: 3.83 OD450
EC50 [11]: 6.91 ng/mL
D (maximum) of 4-parameter fit [12]: 3.83 OD450
EC50 [12]: 4.15 ng/mL
B4: humanized Y104D/Q111P cetuximab mutant antibody (DP-h7) (antibody, human IgG1, kappa)
heavy: not shown
light: B2 light
notes: Full-length IgG; also called DP-h07

ratio of binding activity pH 6.0/7.4 (inverse EC50) [6]: 17.8
ratio of binding activity pH 6.5/7.4 (inverse EC50) [6]: 11
ratio of binding activity pH 6.0/7.4 (inverse EC50) [13]: 48.8
ratio of binding activity pH 6.5/7.4 (inverse EC50) [13]: 17.3
D (maximum) of 4-parameter fit [10]: 2.91 OD450
EC50 [10]: 69.8 ng/mL
D (maximum) of 4-parameter fit [14]: 1.83 OD450
EC50 [14]: 209 ng/mL
D (maximum) of 4-parameter fit [11]: 3.89 OD450
EC50 [11]: 6.37 ng/mL
D (maximum) of 4-parameter fit [12]: 3.92 OD450
EC50 [12]: 3.92 ng/mL
D (maximum) of 4-parameter fit [15]: 3.93 OD450
EC50 [15]: 12.1 ng/mL
D (maximum) of 4-parameter fit [16]: 3.91 OD450
EC50 [16]: 4.28 ng/mL
B5: humanized Y104E/Q111P anti-EGFR antibody (EP-h) (antibody, human IgG1, kappa)
heavy: not shown
light: B2 light
notes: Full-length IgG; also called EP-h07

ratio of binding activity pH 6.0/7.4 (inverse EC50) [6]: 6.2
ratio of binding activity pH 6.5/7.4 (inverse EC50) [6]: 3.99
ratio of binding activity pH 6.0/7.4 (inverse EC50) [13]: 8.33
ratio of binding activity pH 6.5/7.4 (inverse EC50) [13]: 4.44
D (maximum) of 4-parameter fit [10]: 3.45 OD450
EC50 [10]: 30.2 ng/mL
D (maximum) of 4-parameter fit [14]: 2.03 OD450
EC50 [14]: 56.4 ng/mL
D (maximum) of 4-parameter fit [11]: 3.84 OD450
EC50 [11]: 7.57 ng/mL
D (maximum) of 4-parameter fit [12]: 3.89 OD450
EC50 [12]: 4.87 ng/mL
D (maximum) of 4-parameter fit [15]: 3.82 OD450
EC50 [15]: 12.7 ng/mL
D (maximum) of 4-parameter fit [16]: 3.88 OD450
EC50 [16]: 6.77 ng/mL
B6: humanized Y104D anti-EGFR antibody (D-h) (antibody, human IgG1, kappa)
heavy: not shown
light: B2 light
notes: Full-length IgG; also called huY104D; D-h07

ratio of binding activity pH 6.0/7.4 (inverse EC50) [6]: 14.5
ratio of binding activity pH 6.5/7.4 (inverse EC50) [6]: 7.85
ratio of binding activity pH 6.0/7.4 (inverse EC50) [13]: 12.3
ratio of binding activity pH 6.5/7.4 (inverse EC50) [13]: 6.04
D (maximum) of 4-parameter fit [10]: 3.23 OD450
EC50 [10]: 46.1 ng/mL
D (maximum) of 4-parameter fit [14]: 1.44 OD450
EC50 [14]: 59.3 ng/mL
D (maximum) of 4-parameter fit [11]: 3.85 OD450
EC50 [11]: 5.87 ng/mL
D (maximum) of 4-parameter fit [12]: 3.92 OD450
EC50 [12]: 3.18 ng/mL
D (maximum) of 4-parameter fit [15]: 3.94 OD450
EC50 [15]: 9.82 ng/mL
D (maximum) of 4-parameter fit [16]: 3.87 OD450
EC50 [16]: 4.82 ng/mL
B7: humanized Y104E anti-EGFR antibody (E-h) (antibody, human IgG1, kappa)
heavy: not shown
light: B2 light
notes: Full-length IgG; also called huY104E; E-h07
